In one series the target is T1, EBR-5 (Empedobacter stercoris, UniProt A0ABX1WID8).
T1 construct: gene bla; 234-residue precursor; N-terminal signal peptide removed (predicted cleavage between 17 and 18, AFG-QI)
As to the kind of experiment: beta-lactamase inhibition assay. It is filed as biochemical.

The test system of series [1] is CC(=O)OCC1=C(C(=O)O)N2C(=O)[C@@H](NC(=O)Cc3cccs3)[C@H]2SC1. As to the kind of experiment: steady-state hydrolysis kinetics, Michaelis-Menten fit. It is filed as biochemical, Empedobacter stercoris. The text has this:
(§1) steady-state hydrolysis kinetics, Michaelis-Menten fit on EBR-5

Series [2] deals with CO/N=C(\C(=O)N[C@@H]1C(=O)N2C(C(=O)O)=C(COC(C)=O)CS[C@H]12)c1csc(N)n1. The description is as above. It is filed as biochemical, Empedobacter stercoris.
Excerpt: as §1

Series [3] deals with CO[C@@]1(NC(=O)Cc2cccs2)C(=O)N2C(C(=O)O)=C(COC(N)=O)CS[C@@H]21. The series is described as above. It is filed as biochemical, Empedobacter stercoris.
Excerpt: as §1

In series [4] the test system is C[C@@H](O)[C@H]1C(=O)N2C(C(=O)O)=C(SCCN=CN)C[C@H]12. The description is as above. The class given is biochemical, Empedobacter stercoris.
Excerpt: as §1

Series [5] deals with CO/N=C(\C(=O)N[C@@H]1C(=O)N2C(C(=O)O)=C(COC(N)=O)CS[C@H]12)c1ccco1. Described as above. It is filed as biochemical, Empedobacter stercoris.
Excerpt: as §1

Series [6] concerns C[C@@H](O)[C@H]1C(=O)N2C(C(=O)O)=C(S[C@@H]3CN[C@H](CNS(N)(=O)=O)C3)[C@H](C)[C@H]12. The description is as above. The class given is biochemical, Empedobacter stercoris.
Excerpt: as §1

The subject of series [7] is C[C@@H](O)[C@H]1C(=O)N2C(C(=O)O)=C(S[C@@H]3CN[C@H](C(=O)Nc4cccc(C(=O)O)c4)C3)[C@H](C)[C@H]12. Described as above. It is filed as biochemical, Empedobacter stercoris.
Excerpt: as §1

Series [8] concerns CC1(C)S[C@@H]2[C@H](NC(=O)[C@H](N)c3ccccc3)C(=O)N2[C@H]1C(=O)O. Described as above. It is filed as biochemical, Empedobacter stercoris.
Excerpt: as §1

The subject of series [9] is CC1(C)S[C@@H]2[C@H](NC(=O)Cc3ccccc3)C(=O)N2[C@H]1C(=O)O. The description is as above. It is filed as biochemical, Empedobacter stercoris.
Excerpt: as §1

Series [10] has as its system C[C@@H](O)[C@H]1C(=O)N2C(C(=O)O)=C(S[C@@H]3CN[C@H](C(=O)N(C)C)C3)[C@H](C)[C@H]12. The series is described as above. The class given is biochemical, Empedobacter stercoris.
Excerpt: as §1

Series [11] concerns O=C(Cc1cccs1)N[C@@H]1C(=O)N2C(C(=O)O)=C(/C=C/c3ccc([N+](=O)[O-])cc3[N+](=O)[O-])CS[C@H]12. Described as above. The class given is biochemical, Empedobacter stercoris.
Excerpt: as §1

Series [12] has as its system CC(C)(O/N=C(\C(=O)N[C@@H]1C(=O)N2C(C(=O)[O-])=C(C[n+]3ccccc3)CS[C@H]12)c1csc(N)n1)C(=O)O. The series is described as above. It is filed as biochemical, Empedobacter stercoris.
Excerpt: as §1

Series [13] relates to CO/N=C(\C(=O)N[C@@H]1C(=O)N2C(C(=O)[O-])=C(C[N+]3(C)CCCC3)CS[C@H]12)c1csc(N)n1. The description is as above. It is filed as biochemical, Empedobacter stercoris.
Excerpt: as §1

Where only a bound is given, the exact number is not on record here.

One may read the IC50 as the midpoint of a concentration-inhibition curve. A higher IC50 goes with weaker potency. In turn, `O=C(O)[C@H]1/C(=C/CO)O[C@@H]2CC(=O)N21` [clavulanic acid] yielded an IC50 on EBR-5 above 2000 µM.
Broadly, the Km is the substrate concentration at which the rate is half of its maximum. For orientation: kcat means the maximal rate divided by the concentration of active sites. The term kcat/Km denotes the turnover number divided by the Michaelis constant. Regarding EBR-5 (Empedobacter stercoris), the Km in [1] is 64 ± 6.4 µM; in series [2] it was 29 ± 3.9 µM; in series [3] it was 182 ± 12 µM; in series [4], 1,218 ± 147 μM; in series [5], 19 ± 2.3 µM; in [6], 1,283 ± 161 μM. Besides, the Km in [7] is 1,507 ± 175 μM; in [8], 207 ± 21 µM; in [9] it was 116 ± 16 µM; in series [10], 626 ± 61 µM; in series [11], 15 ± 1.7 µM; in series [12], 567 ± 76 µM. In addition, the Km in [13] is reported as 1,058 ± 58 μM. For the same compound, the kcat in series [1] turned out to be 27 ± 0.8 s⁻¹; in [2] it was 2.8 ± 0.1 s⁻¹; in series [3], 1.5 ± 0.04 s⁻¹; in series [4], 124 ± 10 s⁻¹; in series [5], 2.1 ± 0.07 s⁻¹; in series [6], 145 ± 14 s⁻¹. The kcat turned out to be 151 ± 13 s⁻¹ in series [7]; 118 ± 3.3 s⁻¹ in [8]; 86 ± 2.8 s⁻¹ in series [9]; 147 ± 8.3 s⁻¹ in series [10]; 18 ± 0.5 s⁻¹ in series [11]; 0.9 ± 0.09 s⁻¹ in [12]. In addition, the kcat in [13] was found to be 0.1 ± 0.01 s⁻¹. In addition, the kcat/Km was determined as 419000 M⁻¹ s⁻¹ in series [1]; 94000 M⁻¹ s⁻¹ in series [2]; 8500 M⁻¹ s⁻¹ in [3]; 102000 M⁻¹ s⁻¹ in [4]; 111000 M⁻¹ s⁻¹ in series [5]; 113000 M⁻¹ s⁻¹ in series [6]. In addition, the kcat/Km in series [7] is 100000 M⁻¹ s⁻¹; in [8] it was 572000 M⁻¹ s⁻¹; in [9] it was 745000 M⁻¹ s⁻¹; in series [10], 236000 M⁻¹ s⁻¹; in [11] it was 1.17e+06 M⁻¹ s⁻¹; in series [12], 1600 M⁻¹ s⁻¹. The kcat/Km in series [13] was found to be 100 M⁻¹ s⁻¹.
On to `O=C(O)CN(CCN(CC(=O)O)CC(=O)O)CC(=O)O` [EDTA], for which, at EBR-5, the IC50 was 130 µM.

(Values after paper PMC10101081, “EBR-5, a Novel Variant of Metallo-β-Lactamase EBR from Multidrug-Resistant Empedobacter stercoris” (Microbiology Spectrum, 2023).)
